# ± gives the uncertainty stated by the source.
# Experiment: self-splicing fitness, log relative to wild type (ln ratio); higher = more splicing; Tetrahymena group I intron in knt gene, E. coli kanamycin selection, DiMSum; sequences stand for … in CUCUCU…GGAGGGAAAAGUUAUCAGGCAUGCACCUGGUAGCUAGUCUUUAAACCAAUAGAUUGCAUCGGUUUAAAAGGCAAGACCGUCAAAUUGCGGGAAAGGGGUCAACAGCCGUUCAGUACCAAGUCUCAGGGGAAACUUUGAGAUGGCCUUGCAAAGGGUAUGGUAAUAAGCUGACGGACAUGGUCCUAACCACGCAGCCAAGUCCUAAGUCAACAGAUCUUCUGUUGAUAUGGAUGCAGUUCACAGACUAAAUGUCGGUCGGGGAAGAUGUAUUCUUCUCAUAAGAUAUAGUCGGACCUCUCCUUAAUGGGAGCUAGCGGAUGAAGUGAUGCAACACUGGAGCCGCUGGGAACUAAUUUGUAUGCGAAAGUAUAUUGAUUAGUUUUGGAGUACUCGUGGUCG
# Summary of the method: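 Fitness was computed with DiMSum as the error-weighted combination of replicate fold changes, kanamycin versus none, each normalised to wild type. The library randomised all eight intron nucleotides of the P1ex region, with the intron placed in the knt kanamycin-resistance gene on pET-22b(+) in E. coli BL21(DE3). Six replicate transformations were grown overnight at 37°C or 30°C on LB agar with or without 25 μg/mL kanamycin, plus 100 μg/mL carbenicillin, 50 μM IPTG and 0.2% rhamnose. Pooled colonies were amplicon-sequenced on an Illumina HiSeq 2500.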
Sequence,self-splicing fitness (ln) (37 °C),self-splicing fitness (ln) (30 °C)
GUUUAGCAAUAUUACGAAGC,-1.3 ± 0.31,
GCAUAGCAAUAUUACGCGAA,-1.62 ± 0.12,-2.13 ± 0.1
AAUGAGCAAUAUUACGACCG,-1.24 ± 0.34,-3.45 ± 0.36
AGCGAGCAAUAUUACGAAUG,-2.2 ± 0.42,-3.8 ± 0.43
GGCCAGCAAUAUUACGAAGU,-1.26 ± 0.26,-2.41 ± 0.39
CCUCAGCAAUAUUACGUAUC,-3.05 ± 0.26,-0.834 ± 0.13
CCCUAGCAAUAUUACGAUGA,-2.35 ± 0.2,-3.24 ± 0.18
UACAAGCAAUAUUACGACGU,-0.409 ± 0.081,-0.941 ± 0.07
UGGAAGCAAUAUUACGCUUA,0.125 ± 0.15,-1.39 ± 0.13
GCUUAGCAAUAUUACGGGAG,-1.29 ± 0.18,-2.42 ± 0.18
UGAUAGCAAUAUUACGCGCU,-0.36 ± 0.14,-0.577 ± 0.11
CGUCAGCAAUAUUACGUUAU,-2.83 ± 0.17,-2.95 ± 0.14
UCCGAGCAAUAUUACGGGAC,-2.2 ± 0.15,-3.59 ± 0.18
AAAGAGCAAUAUUACGUCCG,-1.86 ± 0.35,-3.14 ± 0.21
CACCAGCAAUAUUACGAGUG,-2.76 ± 0.17,-4.21 ± 0.18
GUUAAGCAAUAUUACGGCCA,-0.359 ± 0.23,-0.63 ± 0.17
AUCGAGCAAUAUUACGGCAU,-0.101 ± 0.1,-0.455 ± 0.098
AGCAAGCAAUAUUACGGACC,-0.517 ± 0.22,0.36 ± 0.2
AGUUAGCAAUAUUACGCUAA,-2.29 ± 0.41,-3.11 ± 0.43
AAACAGCAAUAUUACGUUAG,-1.72 ± 0.12,-3.45 ± 0.14
AUGUAGCAAUAUUACGCAUG,-0.413 ± 0.12,-1.38 ± 0.095
AUGGAGCAAUAUUACGAUUA,,-1.13 ± 0.36
UCAGAGCAAUAUUACGACUC,-2.31 ± 0.26,-2.63 ± 0.22
CAGGAGCAAUAUUACGGGAC,-3.24 ± 0.29,-2.88 ± 0.25
GAUGAGCAAUAUUACGUGAU,-2.3 ± 0.24,-3.66 ± 0.28

Sequence,self-splicing fitness (ln) (37 °C),self-splicing fitness (ln) (30 °C)
UGACAGCAAUAUUACGCGAG,-2.06 ± 0.077,-2.36 ± 0.11
UUCAAGCAAUAUUACGCGCU,-1.44 ± 0.13,-1.69 ± 0.12
UAGAAGCAAUAUUACGCACC,-1.44 ± 0.25,-2.13 ± 0.27
UAUGAGCAAUAUUACGUGCU,-2.39 ± 0.34,-3.7 ± 0.32
GUGCAGCAAUAUUACGUCCU,-0.541 ± 0.096,-0.637 ± 0.12
AAUCAGCAAUAUUACGUUUC,-1.2 ± 0.13,-2.83 ± 0.14
AUCGAGCAAUAUUACGCAUU,-3.11 ± 0.3,-1.6 ± 0.24
ACCAAGCAAUAUUACGACAC,-1.3 ± 0.13,-1.29 ± 0.093
AAUAAGCAAUAUUACGUACG,-0.239 ± 0.17,-0.966 ± 0.14
AGCGAGCAAUAUUACGAGUG,-2.12 ± 0.26,-2.92 ± 0.25
UCUUAGCAAUAUUACGCAAA,-2.31 ± 0.29,-1.56 ± 0.32
AACGAGCAAUAUUACGAGGA,-2.34 ± 0.42,-2.36 ± 0.28
GUAAAGCAAUAUUACGAAUA,-0.495 ± 0.15,-1.68 ± 0.093
UGCUAGCAAUAUUACGCUAA,-1.55 ± 0.16,-1.85 ± 0.13
AGAUAGCAAUAUUACGCCAG,-1.78 ± 0.39,-3.6 ± 0.5
CCGUAGCAAUAUUACGUUCG,0.0526 ± 0.095,-0.619 ± 0.066
AACCAGCAAUAUUACGCAGC,-1.29 ± 0.11,-2.4 ± 0.11
CAUCAGCAAUAUUACGAUUC,-0.269 ± 0.073,-1.62 ± 0.071
AGUAAGCAAUAUUACGUGUA,-1.8 ± 0.13,-2.16 ± 0.12
CCUCAGCAAUAUUACGAAAG,-0.45 ± 0.087,-1.51 ± 0.069
UGAUAGCAAUAUUACGACUA,0.407 ± 0.17,-0.635 ± 0.13
UGGUAGCAAUAUUACGUCCG,-0.449 ± 0.24,-0.727 ± 0.15
CUGCAGCAAUAUUACGAAUA,-1.3 ± 0.2,-1.74 ± 0.45
GACAAGCAAUAUUACGCUCG,-0.891 ± 0.21,-1.47 ± 0.17
GAUUAGCAAUAUUACGUGAA,-1.48 ± 0.14,-3.07 ± 0.17

Sequence,self-splicing fitness (ln) (37 °C),self-splicing fitness (ln) (30 °C)
UACUAGCAAUAUUACGCCUA,0.591 ± 0.13,-0.895 ± 0.14
UUAGAGCAAUAUUACGUGCA,-0.652 ± 0.16,-2.16 ± 0.15
CUUCAGCAAUAUUACGUAAG,-0.514 ± 0.1,-0.469 ± 0.084
CGGUAGCAAUAUUACGUAAC,-2.06 ± 0.41,-3.22 ± 0.4
UUCAAGCAAUAUUACGUACG,-0.699 ± 0.21,-1.19 ± 0.13
CAAGAGCAAUAUUACGAUGG,-0.943 ± 0.077,-1.1 ± 0.091
CCAGAGCAAUAUUACGGCAG,-1 ± 0.13,-1.8 ± 0.088
UGCAAGCAAUAUUACGGCCU,-0.286 ± 0.079,-0.521 ± 0.059
UCAUAGCAAUAUUACGCUGA,-1.85 ± 0.28,-2.32 ± 0.26
UCUCAGCAAUAUUACGCCUC,-2.27 ± 0.29,-3.12 ± 0.27
AAUGAGCAAUAUUACGGACC,-1.08 ± 0.44,
AGCAAGCAAUAUUACGUAGA,-2.44 ± 0.2,-2.83 ± 0.15
GAGUAGCAAUAUUACGGAAA,-2.03 ± 0.12,-3.15 ± 0.17
CAUGAGCAAUAUUACGCCUC,-1.75 ± 0.42,
CGCCAGCAAUAUUACGUUGU,-3.07 ± 0.15,-3.62 ± 0.14
CAGGAGCAAUAUUACGCUCU,-2.41 ± 0.26,-3.36 ± 0.26
AUUUAGCAAUAUUACGGAGG,-2.06 ± 0.27,-2.53 ± 0.19
AGACAGCAAUAUUACGUGCA,-0.00672 ± 0.079,-0.683 ± 0.069
GGCAAGCAAUAUUACGAGCG,0.427 ± 0.097,-0.697 ± 0.073
AUCCAGCAAUAUUACGGCCC,0.127 ± 0.21,-0.946 ± 0.2
AGUAAGCAAUAUUACGAGAA,-1.21 ± 0.41,
GCCAAGCAAUAUUACGCGCA,0.097 ± 0.11,-0.985 ± 0.12
UUCGAGCAAUAUUACGACGG,-0.685 ± 0.1,-1.24 ± 0.11
GCUCAGCAAUAUUACGUUCC,-0.507 ± 0.088,-0.532 ± 0.062
AACGAGCAAUAUUACGGCAA,-1.9 ± 0.24,-1.49 ± 0.27

Sequence,self-splicing fitness (ln) (37 °C),self-splicing fitness (ln) (30 °C)
GAUAAGCAAUAUUACGUUUU,-1.48 ± 0.1,-2.39 ± 0.098
CCGCAGCAAUAUUACGUUCA,-2 ± 0.16,-3.89 ± 0.27
UCAAAGCAAUAUUACGCCCA,-0.49 ± 0.16,-1.32 ± 0.14
UACUAGCAAUAUUACGUAUG,-1.8 ± 0.23,-3.59 ± 0.26
CGGCAGCAAUAUUACGGUAG,-0.0175 ± 0.074,-0.745 ± 0.076
ACCCAGCAAUAUUACGAUAG,-1.78 ± 0.1,-3.3 ± 0.1
UGCUAGCAAUAUUACGGGAU,-1.76 ± 0.14,-3.68 ± 0.19
CAAGAGCAAUAUUACGGACU,-2.75 ± 0.28,
CUGAAGCAAUAUUACGCCCA,,-2.13 ± 0.34
CCUAAGCAAUAUUACGCGGU,-3.06 ± 0.18,-2.54 ± 0.13
CAACAGCAAUAUUACGCAUU,-1.79 ± 0.089,-3.14 ± 0.091
AAAGAGCAAUAUUACGAUAU,-1.97 ± 0.16,-3.17 ± 0.23
GCCGAGCAAUAUUACGACAU,-1.27 ± 0.034,-2.286 ± 0.016
AAGAAGCAAUAUUACGCUUU,-2.58 ± 0.21,-4.1 ± 0.42
CGAGAGCAAUAUUACGUCGU,-3.09 ± 0.37,
AGGAAGCAAUAUUACGGCGC,-0.104 ± 0.15,-0.231 ± 0.11
UGGGAGCAAUAUUACGUCCU,-1.3 ± 0.26,
AUCUAGCAAUAUUACGUGAC,-1.14 ± 0.2,-3.35 ± 0.26
CGGUAGCAAUAUUACGCACG,-1.59 ± 0.26,-2.85 ± 0.21
UGAAAGCAAUAUUACGUGAC,-2.01 ± 0.17,-3.86 ± 0.29
AUUCAGCAAUAUUACGCAAC,-0.188 ± 0.17,-2.05 ± 0.18
UUGCAGCAAUAUUACGUAGA,-0.271 ± 0.079,-1.46 ± 0.074
UAAUAGCAAUAUUACGAUAC,,-3.78 ± 0.43
